In patent EP1506972A1 (Genentech Inc., dated 2005):
One block for each molecule: values may come before it.

Assays:
[1] = target: recombinant human IGFBP-3 (human) (UniProt P17936); test: BIAcore
[2] = target: T1, human IGFBP-1 (human) (UniProt P08833); test: BIAcore
T1 sequence (looked up): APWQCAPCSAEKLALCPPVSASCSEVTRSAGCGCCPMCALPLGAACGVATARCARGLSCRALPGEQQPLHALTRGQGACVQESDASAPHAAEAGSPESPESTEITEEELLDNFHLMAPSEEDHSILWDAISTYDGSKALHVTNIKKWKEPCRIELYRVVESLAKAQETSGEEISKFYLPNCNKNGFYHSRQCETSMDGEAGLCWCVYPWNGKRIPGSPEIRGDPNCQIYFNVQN

[3] = target: IGF-I Y24A (G1S-A70V background) displayed on phage (human; bacteriophage M13); test: competitive phage ELISA, soluble IGFBP-3 vs coated IGFBP-3
[4] = target: IGF-I G19A (G1S-A70V background) displayed on phage (human; bacteriophage M13); test: as above
[5] = target: Ala(1-3)-IGF-I, triple alanine mutant of the first three N-terminal amino acids, displayed on phage (human; bacteriophage M13); test: as above
[6] = target: IGF-I I43A (G1S-A70V background) displayed on phage (human; bacteriophage M13); test: as above
[7] = target: IGF-I G42A (G1S-A70V background) displayed on phage (human; bacteriophage M13); test: as above
[8] = target: IGF-I Q40A (G1S-A70V background) displayed on phage (human; bacteriophage M13); test: as above
[9] = target: IGF-I F25A (G1S-A70V background) displayed on phage (human; bacteriophage M13); test: as above
[10] = target: IGF-I G22A (G1S-A70V background) displayed on phage (human; bacteriophage M13); test: as above
[11] = target: IGF-I F23A (G1S-A70V background) displayed on phage (human; bacteriophage M13); test: as above
[12] = target: IGF-I V44A (G1S-A70V background) displayed on phage (human; bacteriophage M13); test: as above
[13] = target: IGF-I D20A (G1S-A70V background) displayed on phage (human; bacteriophage M13); test: as above
[14] = target: IGF-I N26A (G1S-A70V background) displayed on phage (human; bacteriophage M13); test: as above
[15] = target: IGF-I R21A (G1S-A70V background) displayed on phage (human; bacteriophage M13); test: as above
[16] = target: IGF-I S34A (G1S-A70V background) displayed on phage (human; bacteriophage M13); test: as above
[17] = target: IGF-I T41A (G1S-A70V background) displayed on phage (human; bacteriophage M13); test: as above
[18] = target: IGF-I S35A (G1S-A70V background) displayed on phage (human; bacteriophage M13); test: as above
[19] = target: IGF-I R37A (G1S-A70V background) displayed on phage (human; bacteriophage M13); test: as above
[20] = target: T2, IGF-I F49A (G1S-A70V background) displayed on phage (human; bacteriophage M13); test: competitive phage ELISA, soluble IGFBP-1 vs coated IGFBP-1; conditions: remark: other sources report otherwise
T2 chain: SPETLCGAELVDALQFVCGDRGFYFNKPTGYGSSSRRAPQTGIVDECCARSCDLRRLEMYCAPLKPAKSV

Chain of recombinant human IGFBP-3 (human) (P17936 28-291 limits assumed): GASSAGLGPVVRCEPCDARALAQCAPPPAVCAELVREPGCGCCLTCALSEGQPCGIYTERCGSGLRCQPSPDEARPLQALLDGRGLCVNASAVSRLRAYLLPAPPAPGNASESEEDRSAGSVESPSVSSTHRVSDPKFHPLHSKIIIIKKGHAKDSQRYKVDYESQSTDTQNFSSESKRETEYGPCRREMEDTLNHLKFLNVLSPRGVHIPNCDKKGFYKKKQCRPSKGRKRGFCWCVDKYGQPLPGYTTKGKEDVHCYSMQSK

Molecule: T4A IGF-I (soluble, purified) (from UniProt P05019 49-118) (ligand)
KD(mutant)/KD(IGF-I) [1]: 2.1 fold
KD(mutant)/KD(IGF-I) [2]: 6.9 fold

Molecule: G1S/A70V IGF-I (soluble, purified) (from UniProt P05019 50-117) (ligand)
KD(mutant)/KD(IGF-I) [1]: 1.5 fold
KD(mutant)/KD(IGF-I) [2]: 1.1 fold

Molecule: F25A IGF-I (soluble, purified) (from UniProt P05019 49-118) (ligand)
KD(mutant)/KD(IGF-I) [1]: 5.1 fold
KD(mutant)/KD(IGF-I) [2]: 25 fold

Molecule: P39A IGF-I (soluble, purified) (from UniProt P05019 49-118) (ligand)
KD(mutant)/KD(IGF-I) [1]: 1.5 fold
KD(mutant)/KD(IGF-I) [2]: 1 fold

Molecule: recombinant human IGFBP-3 (from UniProt P17936 28-291)
IC50 [3]: 2.53 nM
relative IC50 (IC50mut/IC50 G1S-A70V) [3]: 3.4 fold
IC50 [4]: 0.9 nM
relative IC50 (IC50mut/IC50 G1S-A70V) [4]: 1.2 fold
IC50 [5]: 1.12 nM
relative IC50 (IC50mut/IC50 G1S-A70V) [5]: 1.5 fold
IC50 [6]: 1.17 nM
relative IC50 (IC50mut/IC50 G1S-A70V) [6]: 1.6 fold
IC50 [7]: 0.53 nM
relative IC50 (IC50mut/IC50 G1S-A70V) [7]: 0.7 fold
IC50 [8]: 0.56 nM
relative IC50 (IC50mut/IC50 G1S-A70V) [8]: 0.7 fold
IC50 [9]: 3.69 nM
relative IC50 (IC50mut/IC50 G1S-A70V) [9]: 4.9 fold
IC50 [10]: 2.07 nM
relative IC50 (IC50mut/IC50 G1S-A70V) [10]: 2.8 fold
IC50 [11]: 2.18 nM
relative IC50 (IC50mut/IC50 G1S-A70V) [11]: 2.9 fold
IC50 [12]: 1.03 nM
relative IC50 (IC50mut/IC50 G1S-A70V) [12]: 1.4 fold
IC50 [13]: 1.11 nM
relative IC50 (IC50mut/IC50 G1S-A70V) [13]: 1.5 fold
IC50 [14]: 0.9 nM
relative IC50 (IC50mut/IC50 G1S-A70V) [14]: 1.2 fold
IC50 [15]: 0.58 nM
relative IC50 (IC50mut/IC50 G1S-A70V) [15]: 0.8 fold
IC50 [16]: 1.65 nM
relative IC50 (IC50mut/IC50 G1S-A70V) [16]: 2.2 fold
IC50 [17]: 0.43 nM
relative IC50 (IC50mut/IC50 G1S-A70V) [17]: 0.6 fold
IC50 [18]: 0.47 nM
relative IC50 (IC50mut/IC50 G1S-A70V) [18]: 0.6 fold
IC50 [19]: 0.75 nM
relative IC50 (IC50mut/IC50 G1S-A70V) [19]: 1 fold

Molecule: V11A IGF-I (soluble, purified) (from UniProt P05019 49-118) (ligand)
KD(mutant)/KD(IGF-I) [1]: 4.5 fold
KD(mutant)/KD(IGF-I) [2]: 5.1 fold

Continued, values first:

KD(mutant)/KD(IGF-I) [1]: 6.9 fold
KD(mutant)/KD(IGF-I) [2]: 25 fold
Molecule: F16A IGF-I (soluble, purified) (from UniProt P05019 49-118) (ligand)

KD(mutant)/KD(IGF-I) [1]: 0.8 fold
KD(mutant)/KD(IGF-I) [2]: 1.1 fold
Molecule: R36A IGF-I (soluble, purified) (from UniProt P05019 49-118) (ligand)

relative IC50 (IC50mut/IC50 G1S-A70V) [20]: > 100 fold
B1: human IGFBP-1, P08833 26-259 (protein, UniProt P08833 26-259, looked up)
chain: APWQCAPCSAEKLALCPPVSASCSEVTRSAGCGCCPMCALPLGAACGVATARCARGLSCRALPGEQQPLHALTRGQGACVQESDASAPHAAEAGSPESPESTEITEEELLDNFHLMAPSEEDHSILWDAISTYDGSKALHVTNIKKWKEPCRIELYRVVESLAKAQETSGEEISKFYLPNCNKNGFYHSRQCETSMDGEAGLCWCVYPWNGKRIPGSPEIRGDPNCQIYFNVQN
